The values that follow come from US9499590B2, “Antibodies against and methods for producing vaccines for respiratory syncytial virus” (MEDIMMUNE, LLC, priority 2009, dated 2016).

In general, Kd refers to the free concentration of one partner at which half of the binding sites on the other are occupied at equilibrium, for simple one-to-one binding.

Experiment [1] concerns MEDI-524 (Numax™). The experiment in a line: Binding ELISA of F-peptides. The conditions noted are these: peptide coated on plate. The method, then:
Based in part upon the results of the MARM analysis above, F peptides were synthesized (done by AnaSpec, Inc. San Jose, Calif.). Each well of the assay plate was coated with […] of […] of a particular soluble RSV F-Peptide overnight at 2-8° C. After the plate was aspirated and washed with PBS/0.05% Tween-20 buffer, it was blocked by incubating with PBS/0.05% Tween-20/0.5% BSA buffer for one hour at ambient temperature. The plate was washed and MEDI-524 standard curve samples, test samples, MEDI-524 Reference Standard, and negative control were added to the washed plate. Following a one-hour incubation at ambient temperature, the plate was washed, and […] of a goat anti-human IgG-HRP (horseradish peroxidase) at 1:16,000 dilution was added to the plate. After washing, […] of 3,3′,5,5′-tetramethylbenzidine (TMB) substrate was then added to the plate and incubated at ambient temperature protected from light for 10 minutes. The enzymatic reaction was stopped by adding […] of 2N H2SO4, and the absorbance at 450 nm was measured using a microplate reader. […] After meeting all system suitability requirements, as well as meeting the criteria of the parallelism test, the ED50 ratio of the test sample to Reference Standard was calculated, and the results were expressed as a percentage of the Reference Standard binding activity. […]

For experiment [2], the system named is MEDI-524 Mab. The experiment in a line: Isothermal titration calorimetry (ITC) of F peptides with MEDI-524 Mab. It counts as binding. The following applies: 25 mM His, pH 6, 10° C. The source says: Isothermal Titration calorimetry assays (ITC) have been described (see, for example, Heerklotz H et al., Biophysical Journal, May 1999). Molecular interactions are defined by stoichiometry and a few thermodynamic parameters. All binding reactions are associated with the absorption or generation of heat. Therefore calorimetry is emerging as a premier tool for the characterisation of interactions of biological macromolecules. ITC is the only method that measures equilibrium constants, enthalpy and entropy in one single experiment. If the experiment is performed at different temperatures the important parameter, the heat capacity change, can be determined. ITC has become a standard method for investigating the binding of ligands to receptor molecules. Accordingly, ligands are mixed with receptors, and the subsequent heats of incorporation (or binding) are measured.
To evaluate the binding properties of the wild-type peptide (SEQ ID NO.28) to Numax™/MEDI-524 by using the ITC technique. The MEDI-524 Mab was titrated with SEQ ID NO.28 in the basis buffer 25 mM His, pH 6 at 10° C. SEQ ID NO.28: (MW=2732.14, no W, Y, or C). A working solution of 55 μM was prepared by diluting 30 μL of a 5 mg/mL peptide solution with 970 μL, of 25 mM His, pH 6 buffer to be used for the ITC titrations. A 1.15 μM (0.1706 mg/ml) working solution of MEDI-524 was used for the experiments (MW 148400, A280=1.47). […]
(In general: In ITC the heat of successive injections is recorded.)

Experiment [3] has as its system RSV monoclonal antibody resistant mutants (MARMs). The experiment in a line: Microneutralization assay of RSV monoclonal antibody resistant mutants (MARMs). It counts as cell-based, respiratory syncytial virus. The method, then: Neutralization assays have also been described (see, for example, Beller et al., 1989, J Virol 63: 2941-2950, which is incorporated herein by reference in its entirety). Briefly RSV is incubated in the presence of serial dilutions of the agent(s) to be tested (e.g., F peptide) for an appropriate period of time. The mixtures of virus-agent(s) are then transferred to cell monolayers and incubated for an appropriate period of time. Cells are subsequently examined microscopically for cytopathology. Microscopic observations can be confirmed by staining with a glutaraldehyde-crystal violet solution. Neutralization can be expressed as the reciprocal of the highest agent dilution which inhibited more then 95% of the viral cytopathic effect present in the control sample (RSV and cells alone)
(§1) Hep-2 cells were infected in 24 well plates with RSV (in some cases, the B9320 RSV strain) in the presence of an anti-RSV monoclonal antibody, such as, for instance, Synagis® (palivizumab) and/or Numax™ (motavizumab) or MEDI-524. The virus was passaged two to three more times in the continued presence of the monoclonal antibody. […] The resulting plaques were purified two times in the presence of the monoclonal antibody. The virus was expanded to produce virus stock in either the presence or absence of the monoclonal antibody. Analysis of susceptibility of the viral mutants to neutralization by Synagis® (palivizumab) and Numax™ (motavizumab) was performed by a microneutralization assay and/or IFA. Finally, the sequence of the mutant F protein was determined by standard methods. […] Antibody contact with residues 262, 268 and 272 appear important.

Experiment [4] deals with RSV B9320 strain mutants. The experiment is described as follows: Microneutralization assay of RSV B9320 strain F protein mutants. It counts as cell-based, respiratory syncytial virus.
Source text: as §1

Experiment [5] concerns the target RSV F protein. The experiment in a line: Biacore kinetic analysis, Numax reference standard. It counts as binding, respiratory syncytial virus. The source says: BIAcore analysis can measure the kinetic interactions of anti-RSV antibodies with RSV F peptides by surface plasmon resonance using a BIAcore 1000, 2000, or 3000 instrument (Biacore, Uppsala, Sweden). Purified recombinant, C-terminally truncated F protein was covalently coupled to a (1-ethyl-3-[3-dimethylaminopropyl]carbodiimide hydrochloride)/N-hydroxysuccinimide-activated CM5 sensor chip at a low protein density (see Johnsson et al. (1991) Anal. Biochem. 198, 268-277). The unreacted active ester groups were blocked with 1 M ethanolamine. For use as a reference, when the BIAcore 2000 or 3000 instrument was used, a blank surface, containing no antigen, was prepared under identical immobilization conditions. To minimize binding variations caused by different lots of F proteins, most of the antibodies were measured against the same lot of F protein. In several cases when different lots of F proteins were used, their binding to an anti-RSV antibody was used as a reference to make sure that these lots had similar binding characteristics to the lot that is used mainly. A serial 2-fold dilution series of purified antibodies, ranging from 0.2 to 100 nm in HBS/Tween 20 buffer (BIAcore), was injected over the F-protein and reference cell surfaces, which were connected in series. In each measurement, the residual antibody was removed from the sensor chip by a brief pulse of 100 mM HCl. The binding curves were globally fitted to a 1:1 Langmuir binding model using the BIAevaluation program. This algorithm calculates both kon and koff. The apparent equilibrium dissociation constant, Kd, was deduced as the ratio of the two rate constants, koff/kon.
(Surface plasmon resonance follows binding to a sensor surface in real time, without labels.)

Where [6] appears, read: K272E, or double mutation N262Y + K272Q.
The mark [7] stands for this setting: MARM 45, K272Q, selection Numax.
The mark [8] stands for this setting: MARM 49-B12, K272N, selection Numax.
Where [9] appears, read: MARM 63-B6, N268L + K272I, selection Numax.
Where [10] appears, read: MARM 63-H2, K272I, selection Numax.
The mark [11] stands for this setting: MARM 65-B10, N262Y + K272Q, selection Numax.
Where [12] appears, read: MARM 69-C8, K272E, selection Numax.
Where [13] appears, read: MARM #10, K272E + N276Y, selection A4b4.
[14] abbreviates: MARM #13, N262K + K272Q, selection Synagis then A4b4.
The mark [15] stands for this setting: MARM B1, K272N, selection Synagis.
[16] abbreviates: MARM B2, K272M, selection Synagis.
Where [17] appears, read: MARM B7, K272T, selection Synagis.
[18] abbreviates: MARM B9, K272Q, selection Synagis.
Setting [19] is: MARM NuMARM3, K272E, selection Numax.
The mark [20] stands for this setting: all other mutations indicated at position 272.
The mark [21] stands for this setting: K272N, K272Q or K272I, or double N268L + K272I.

“F peptide with a histidine at position 262: F peptide with a histidine at position 262; SEQ ID number not stated (SEQ ID No: 13, 25 and 26 carry it) (NSELLSLIHDMPITNDQKKLMSNN)”: the “Binding to Numax™ compared with wild-type F protein epitope (SEQ ID NO. 1)” value in experiment [1] is “more tightly”.
Turning to “NSELLSLINDMPITNDQKKLMSNN-NH2 [SEQ ID NO.28]”, in experiment [2], the “binding strength lower compared to the SEQ ID NO.24 peptide” value is recorded as ~3 orders of magnitude.
With “Synagis ®: humanized RSV monoclonal antibody directed against the F glycoprotein of RSV [reference compound]”, the “Neutralization of RSV mutant” value in experiment [3] (setting [6]) is reported as “longer neutralized RSV”; in experiment [3] (setting [20]) it was “eliminate the ability”; in experiment [4] (setting [21]), “lost its ability to neutralize RSV”; in experiment [4] (double mutation K272Q + N262K), “lost their ability to neutralize”. Moreover, the “Neutraliz by antibody?” value in experiment [3] (setting [7]), in experiment [3] (setting [8]), in experiment [3] (setting [9]), in experiment [3] (setting [10]), in experiment [3] (setting [11]) and in experiment [3] (setting [12]) was “No” throughout. For the same molecule, the “Neutraliz by antibody?” value was “No” in experiment [3] (MARM #6, K272E, selection A4b4); “No” in experiment [3] (setting [13]); “No” in experiment [3] (setting [14]); “No” in experiment [3] (setting [15]); “No” in experiment [3] (setting [16]); “No” in experiment [3] (setting [17]). For the same molecule, the “Neutraliz by antibody?” value in experiment [3] (setting [18]) and in experiment [3] (setting [19]) was “No” in each case.

B1: Numax ™: enhanced potency RSV-specific monoclonal antibody derived by in vitro affinity maturation of palivizumab (antibody, listed as Chimaera sp., V domains shown)
VH: QVTLRESGPALVKPTQTLTLTCTFSGFSLSTAGMSVGWIRQPPGKALEWLADIWWDDKKHYNPSLKDRLTISKDTSKNQVVLKVTNMDPADTATYYCARDMIFNFYFDVWGQGTTVTVSS
VL: DIQMTQSPSTLSASVGDRVTITCSASSRVGYMHWYQQKPGKAPKLLIYDTFFLDSGVPSRFSGSGSGTEFTLTISSLQPDDFATYYCFQGSGYPFTFGGGTKVEIK
modifications: (1)..(120) Humanized VH domain antibody sequence; (1)..(106) Humanized VL domain antibody sequence
B1: the “Neutralization of RSV mutant” value is given as “longer neutralized RSV” in experiment [3] (setting [6]); “retain its ability to neutralize” in experiment [3] (setting [20]); “retain its ability to neutralize RSV at higher concentration” in experiment [4] (setting [21]); “lost their ability to neutralize” in experiment [4] (double mutation K272Q + N262K); “did not knock out” in experiment [4] (single mutant K272Q). Further, the “Neutraliz by antibody?” value in experiment [3] (setting [7]) was “Yes at higher”; in experiment [3] (setting [8]), “Yes at higher”; in experiment [3] (setting [9]) it was “Yes at higher”; in experiment [3] (setting [10]) it was “Yes at higher”; in experiment [3] (setting [11]) it was “No”; in experiment [3] (setting [12]), “No”. Besides, the “Neutraliz by antibody?” value in experiment [3] (MARM #6, K272E, selection A4b4) is listed as “No”; in experiment [3] (setting [13]), “No”; in experiment [3] (setting [14]), “No”; in experiment [3] (setting [15]), “Yes”; in experiment [3] (setting [16]), “Yes”; in experiment [3] (setting [17]) it was “Yes”. In addition, the “Neutraliz by antibody?” value in experiment [3] (setting [18]) is listed as “Yes”; in experiment [3] (setting [19]), “No”. Moreover, in experiment [5], the Kd came out at 4 pM. This molecule also had a ka in experiment [5] of 4.70E+05. In addition, the kd in experiment [5] is reported as 1.88E−06.
